# B1: GDNF: recombinant human mature GDNF obtained from Genentech (protein, UniProt P39905 78-211, looked up)
# Glial cell line-derived …: SPDKQMAVLPRRERNRQAAAANPENSRGKGRRGQRGKNRGCVLTAIHLNVTDLGLGYETKEELIFRYCSGSCDAAETTYDKILKNLSRNRRLVSDKVGQACCRPIAFDDDLSFLDDNLVYHILRKHSAKRCGCI
# How the values were obtained:
# [1] = tested on: CHP126 neuroblastoma cell line; assay: Responsiveness of a neuroblastoma cell line that does not express RET (CHP126); type: cell-based; conditions: data not shown
# [2] = molecular target: T1, GFRα1/RET (UniProt P07949+Q62997); assay: Ga14-Elk/Ga14-Luc reporter in RET-3T3 fibroblasts transfected with GFRα1; type: cell-based, rat GFRα1, human RET; conditions: FIG. 10A; for activation of RET signaling in cells expressing GFRα1/RET (luciferase reporter): RET-3T3, 50 ng/ml for 6-8 hours
# T1 construct: expressed in transfected cells; host or cells: MG87 fibroblasts stably expressing human RET (RET-3T3), transiently transfected with the CMV-GFRα1 plasmid
# Description: Thus, to directly test which receptor combinations can form functional receptors for artemin, expression plasmids for the individual GFRA coreceptors together with the Ga14-Elk/Ga14-Luc reporter system were transiently transformed into fibroblasts that stably express RET. This system, which utilizes the ability of the Ga14-Elk fusion protein to respond to MAP kinase activity and activate transcription of the Ga14-luciferase reporter, has been used previously to monitor NGF/TrkA activation of the MAP kinase pathway in PC12 cells (Vossler et al., Cell 89:73-82, 1997; York et al., Nature 392:622-626, 1998), and GDNF/RET activation of MAP kinase in neuroblastoma cell lines (Worby et al., 1998, supra; Worby et al., J. Biol. Chem. 271:23619-23622, 1996).
# Generation of the expression plasmids for rat GFRα1 and human GFRα2, as well as MG87 fibroblasts stably expressing human RET (RET-3T3), were described in detail previously (Baloh et al., 1997, supra; Creedon et al., 1997, supra). […]
# (§1) NLF neuroblastoma cells, which naturally express GFRα2/RET (Tansey et al., submitted), or the RET-3T3 cells were plated at 85,000 cells/well in 12-well plates, and cotransfected with the reporter plasmids Ga14-Luc and CMV-Ga14-Elk (250 ng/well and 50 ng/well, respectively), CMV-lacZ (50 ng/well) for transfection normalization, one of the CMV-GFRA expression plasmids (500 ng/well), and pBluescript (650 ng/well) as carrier for a total of 1.5 μg DNA/well using the Superfect reagent (Qiagen) according to the manufacturer's instructions. […] Measurement of luciferase and β-galactosidase activity was measured using a luminometer and performed as described (Svaren et al., EMBO J 17:6010-6019, 1998). The average luciferase activity of duplicate samples was normalized to β-galactosidase activity of the cotransformed lacZ reporter, and fold activation was calculated by dividing the normalized activity in factor-treated cells by that in the no treatment control.
# [3] = molecular target: T2, GFRα2/RET (Homo sapiens, UniProt O00451+P07949); assay: Ga14-Elk/Ga14-Luc reporter in RET-3T3 fibroblasts transfected with GFRα2; type: cell-based; conditions: RET-3T3, 50 ng/ml for 6-8 hours, FIG. 10A
# T2 construct: expressed in transfected cells; host or cells: MG87 fibroblasts stably expressing human RET (RET-3T3), transiently transfected with the CMV-GFRα2 plasmid
# Protocol: (§2) Thus, to directly test which receptor combinations can form functional receptors for artemin, expression plasmids for the individual GFRA coreceptors together with the Ga14-Elk/Ga14-Luc reporter system were transiently transformed into fibroblasts that stably express RET. […]
# as §1
# [4] = molecular target: T3, RET (Rattus norvegicus, UniProt G3V9H8); assay: Western blot of RET phosphorylation and MAP kinase activation in SCG neurons; type: cell-based; conditions: 50 ng/ml for 20 minutes, FIG. 9A
# T3 construct: endogenous in cells
# Protocol: In brief, SCG neurons were dissected from postnatal day 1 (P1) rats and maintained in NGF-containing medium for 5 days, after which they were deprived of NGF by switching to NGF-free medium in the presence of anti-NGF antibodies. After 2 hours without NGF, neurons were switched to medium containing NGF, GDNF or artemin at 50 ng/ml for 20 minutes. Cells were washed in cold PBS, and collected in immunoprecipitation buffer (1 mM EDTA/1 mM EGTA/0.2 mM NaVO3/1 mM Pefabloc/1 uM pepstatin A/10 ug/ml leupeptin/2 ug/ml aprotinin/1% Triton X-100/0.5% Nonidet P-40/150 mM NaCl in 10 mM Tris, pH 7.4). The lysates were incubated with 30 μl agarose-conjugated anti-phosphotyrosine antibodies (Calbiochem) at 4° C. for 1 hr. Beads were then washed three times with immunoprecipitation buffer, resuspended in SDS sample buffer, and boiled for 5 min. Samples were separated using SDS-PAGE, and transferred to nitrocellulose membranes. Membranes were blocked for 1 hr at 25° C. in TBS containing 5% dry milk, incubated overnight 4° C. with a 1:300 dilution of anti-Ret antibody (C-19; Santa Cruz), then washed (3× in TBS containing 0.1% Tween-20) and incubated in a 1:10,000 dilution of anti-rabbit antibodies conjugated to HRP (Jackson Immunoresearch). Membranes were washed 3×, incubated with SuperSignal ULTRA (Pierce) for 5 minutes, then exposed to film. For MAP kinase (MAPK) assays, a portion of the total lysate wars removed before immunoprecipitation, separated by SDS-PAGE, and immunoblotted using an anti-phospho-MAP-kinase antibody (New England Biolabs).
# [5] = tested on: NBL-S neuroblastoma cell line; assay: BrdU cell proliferation assay in NBL-S neuroblastoma cells; type: cell-based; conditions: 50 ng/mL, 30 hrs after factor addition, FIG. 8D
# Protocol: In another experiment, the ability of artemin to induce proliferation of the NBL-S neuroblastoma cell line was examined. NBL-S cells were plated at 5×10^4 cells/well on 48-well plates in standard medium, either without treatment or in the presence of 50 ng/mL of GDNF, artemin, or persephin. Actively dividing cells undergoing DNA synthesis 30 hrs after factor addition were detected using the BrdU (colorimetric) cell proliferation assay kit according to the manufacturer's instructions (Boehringer-Mannheim) and the data are shown in FIG. 8D.
# [6] = tested on: NLF cells transformed with GFRα1; assay: Ga14-Elk/Ga14-Luc reporter in NLF neuroblastoma cells transformed with GFRα1; type: cell-based; conditions: factor for 24 hours, low-serum medium, FIG. 10B
# Protocol: as §2, §1
# [7] = molecular target: T4, GFRα3/RET (Homo sapiens, UniProt O60609+P07949); assay: Ga14-Elk/Ga14-Luc reporter in RET-3T3 fibroblasts transfected with GFRα3; type: cell-based; conditions: RET-3T3, 50 ng/ml for 6-8 hours, FIG. 10A
# T4 construct: a fragment containing the complete coding region of human GFRα3 was PCR-amplified from a human pituitary cDNA library; expressed in transfected cells; host or cells: MG87 fibroblasts stably expressing human RET (RET-3T3), transiently transfected with pCB6-GFRα3
# Protocol: as §2, §1
# T3 sequence (G3V9H8 24-1115): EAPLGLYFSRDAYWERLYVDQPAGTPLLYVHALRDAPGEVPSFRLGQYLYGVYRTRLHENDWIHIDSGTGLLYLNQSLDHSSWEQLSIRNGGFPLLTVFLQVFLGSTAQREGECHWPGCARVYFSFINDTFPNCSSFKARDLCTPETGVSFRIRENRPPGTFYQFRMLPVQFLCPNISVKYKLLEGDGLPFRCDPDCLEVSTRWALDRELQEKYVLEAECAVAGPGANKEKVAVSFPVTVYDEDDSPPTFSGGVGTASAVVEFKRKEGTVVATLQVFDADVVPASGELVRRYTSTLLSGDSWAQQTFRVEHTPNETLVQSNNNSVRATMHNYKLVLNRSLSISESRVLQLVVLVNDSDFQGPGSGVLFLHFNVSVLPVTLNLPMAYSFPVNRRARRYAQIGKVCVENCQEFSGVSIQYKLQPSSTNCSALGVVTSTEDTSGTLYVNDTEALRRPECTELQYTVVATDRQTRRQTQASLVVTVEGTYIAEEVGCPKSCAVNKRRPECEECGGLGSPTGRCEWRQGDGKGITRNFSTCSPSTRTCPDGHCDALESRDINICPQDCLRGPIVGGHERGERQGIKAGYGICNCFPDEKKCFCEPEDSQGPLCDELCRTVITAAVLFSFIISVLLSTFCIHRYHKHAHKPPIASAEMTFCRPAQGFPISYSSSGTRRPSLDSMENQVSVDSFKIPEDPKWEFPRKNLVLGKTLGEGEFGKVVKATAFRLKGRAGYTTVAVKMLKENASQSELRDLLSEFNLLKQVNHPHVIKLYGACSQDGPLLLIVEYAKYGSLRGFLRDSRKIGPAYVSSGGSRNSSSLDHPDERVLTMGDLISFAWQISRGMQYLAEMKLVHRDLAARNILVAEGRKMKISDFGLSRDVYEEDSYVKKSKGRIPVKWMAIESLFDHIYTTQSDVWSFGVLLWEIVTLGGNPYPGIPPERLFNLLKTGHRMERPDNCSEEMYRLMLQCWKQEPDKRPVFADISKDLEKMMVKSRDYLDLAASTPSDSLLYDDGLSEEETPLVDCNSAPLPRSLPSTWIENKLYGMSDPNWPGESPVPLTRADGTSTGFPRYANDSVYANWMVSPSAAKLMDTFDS
# T1 sequence (Q62997 25-430 limits assumed): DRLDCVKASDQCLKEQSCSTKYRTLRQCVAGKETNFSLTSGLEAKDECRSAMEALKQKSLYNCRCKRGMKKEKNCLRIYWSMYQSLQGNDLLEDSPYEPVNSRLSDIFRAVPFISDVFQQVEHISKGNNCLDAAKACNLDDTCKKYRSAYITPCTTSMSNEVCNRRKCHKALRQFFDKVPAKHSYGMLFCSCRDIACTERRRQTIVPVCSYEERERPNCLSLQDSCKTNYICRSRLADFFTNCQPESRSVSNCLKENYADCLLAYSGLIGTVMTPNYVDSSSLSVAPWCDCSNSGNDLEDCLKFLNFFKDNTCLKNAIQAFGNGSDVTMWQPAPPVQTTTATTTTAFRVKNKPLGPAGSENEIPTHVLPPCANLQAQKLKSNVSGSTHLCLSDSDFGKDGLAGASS
# T1 sequence (P07949 29-1114): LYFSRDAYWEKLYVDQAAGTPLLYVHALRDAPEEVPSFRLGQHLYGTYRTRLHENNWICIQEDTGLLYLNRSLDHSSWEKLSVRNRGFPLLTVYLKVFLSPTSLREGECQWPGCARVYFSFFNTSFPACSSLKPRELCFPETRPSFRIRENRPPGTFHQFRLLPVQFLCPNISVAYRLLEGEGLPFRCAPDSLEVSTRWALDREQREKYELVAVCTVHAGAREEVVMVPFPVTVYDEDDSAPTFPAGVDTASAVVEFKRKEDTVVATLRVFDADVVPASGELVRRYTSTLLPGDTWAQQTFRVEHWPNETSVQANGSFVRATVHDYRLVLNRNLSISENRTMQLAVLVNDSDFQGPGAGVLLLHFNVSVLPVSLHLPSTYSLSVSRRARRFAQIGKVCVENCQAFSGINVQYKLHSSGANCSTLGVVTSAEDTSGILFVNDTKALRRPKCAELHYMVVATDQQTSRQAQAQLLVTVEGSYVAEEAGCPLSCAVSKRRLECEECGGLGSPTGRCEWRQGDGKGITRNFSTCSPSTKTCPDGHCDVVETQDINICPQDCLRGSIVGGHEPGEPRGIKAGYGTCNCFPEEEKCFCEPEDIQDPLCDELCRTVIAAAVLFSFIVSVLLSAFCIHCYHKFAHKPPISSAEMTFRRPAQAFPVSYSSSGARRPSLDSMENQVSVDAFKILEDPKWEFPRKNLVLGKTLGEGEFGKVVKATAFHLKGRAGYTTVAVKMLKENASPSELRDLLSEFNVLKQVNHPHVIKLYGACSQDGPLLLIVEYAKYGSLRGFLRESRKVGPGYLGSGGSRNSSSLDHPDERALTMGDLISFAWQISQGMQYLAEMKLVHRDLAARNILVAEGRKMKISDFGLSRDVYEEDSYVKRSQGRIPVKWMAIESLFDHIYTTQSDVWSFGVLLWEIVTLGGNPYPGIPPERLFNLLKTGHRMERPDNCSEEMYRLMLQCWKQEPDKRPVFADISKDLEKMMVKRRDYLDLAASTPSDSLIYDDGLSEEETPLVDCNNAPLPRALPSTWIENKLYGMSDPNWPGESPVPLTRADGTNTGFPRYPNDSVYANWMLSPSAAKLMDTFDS
# T4 sequence (O60609 32-374 limits assumed): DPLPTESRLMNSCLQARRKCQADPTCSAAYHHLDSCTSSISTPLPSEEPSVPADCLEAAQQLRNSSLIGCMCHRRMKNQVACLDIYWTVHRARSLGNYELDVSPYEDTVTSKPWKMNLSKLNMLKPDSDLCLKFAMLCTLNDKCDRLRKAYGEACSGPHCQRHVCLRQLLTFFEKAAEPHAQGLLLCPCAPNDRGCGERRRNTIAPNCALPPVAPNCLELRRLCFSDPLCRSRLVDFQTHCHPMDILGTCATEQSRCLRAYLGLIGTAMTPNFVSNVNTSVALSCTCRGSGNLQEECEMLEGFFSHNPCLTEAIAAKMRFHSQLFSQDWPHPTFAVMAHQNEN
# T4 sequence (P07949 29-1114): as the sequence (P07949 29-1114) above
# T2 sequence (O00451 22-444 limits assumed): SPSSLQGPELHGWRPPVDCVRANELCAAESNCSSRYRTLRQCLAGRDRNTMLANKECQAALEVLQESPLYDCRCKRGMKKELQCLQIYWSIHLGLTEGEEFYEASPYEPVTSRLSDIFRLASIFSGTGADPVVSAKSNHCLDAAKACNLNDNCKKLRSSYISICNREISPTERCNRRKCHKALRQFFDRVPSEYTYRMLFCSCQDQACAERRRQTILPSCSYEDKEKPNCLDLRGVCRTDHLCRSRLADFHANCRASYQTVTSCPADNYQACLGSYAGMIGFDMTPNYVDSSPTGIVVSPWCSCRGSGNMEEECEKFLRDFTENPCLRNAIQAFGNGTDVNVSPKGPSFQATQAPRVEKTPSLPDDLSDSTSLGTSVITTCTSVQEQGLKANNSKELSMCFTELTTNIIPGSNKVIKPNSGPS
# T2 sequence (P07949 29-1114): as the sequence (P07949 29-1114) above
Molecule,response of CHP126 cells [1],activation of RET signaling in cells expressing GFRα1/RET (luciferase reporter) [2],"degree of RET activation in cells expressing GFRα1/RET compared with GDNF ([2]; RET-3T3, 50 ng/ml)",activation of RET signaling in cells expressing GFRα2/RET (luciferase reporter) [3],downstream signaling (activation of the MAP kinase pathway) in SCG neurons [4],tyrosine-phosphorylation of RET in SCG neurons [4],proliferation of NBL-S cells (BrdU incorporation) [5],response of NLF cells transformed with GFRα1 (luciferase reporter) [6],activation of RET signaling in cells expressing GFRα3/RET (luciferase reporter) [7]
"artemin: recombinant mature human artemin (FIG. 3A, SEQ ID NO:3) with 8-histidine tag, produced in E. coli; GDNF family neurotrophic factor",did not respond,able to activate RET in cells expressing GFRα1/RET,to a lesser degree than GDNF,not GFRα2/RET,effective in eliciting downstream signaling,induced tyrosine-phosphorylation of RET,stimulated proliferation of NBL-S cells,became responsive to artemin,able to activate GFRα3/RET
B1,did not respond,activated RET signaling,,activated RET signaling,,induced tyrosine-phosphorylation of RET,stimulated proliferation of NBL-S cells,responded more intensely to GDNF,not GFRα3/RET
